Results reported in PMC4143292, “An Enzymatic Platform for the Synthesis of Isoprenoid Precursors” (PLoS ONE, 2014).

System: C=C(OP(=O)(O)O)C(=O)O
Assay: purified protein
Details: Hepes pH 8.0, 25 C, apparent

PK (pyruvate kinase) (Oryctolagus cuniculus), sequence (chain, as listed by the source): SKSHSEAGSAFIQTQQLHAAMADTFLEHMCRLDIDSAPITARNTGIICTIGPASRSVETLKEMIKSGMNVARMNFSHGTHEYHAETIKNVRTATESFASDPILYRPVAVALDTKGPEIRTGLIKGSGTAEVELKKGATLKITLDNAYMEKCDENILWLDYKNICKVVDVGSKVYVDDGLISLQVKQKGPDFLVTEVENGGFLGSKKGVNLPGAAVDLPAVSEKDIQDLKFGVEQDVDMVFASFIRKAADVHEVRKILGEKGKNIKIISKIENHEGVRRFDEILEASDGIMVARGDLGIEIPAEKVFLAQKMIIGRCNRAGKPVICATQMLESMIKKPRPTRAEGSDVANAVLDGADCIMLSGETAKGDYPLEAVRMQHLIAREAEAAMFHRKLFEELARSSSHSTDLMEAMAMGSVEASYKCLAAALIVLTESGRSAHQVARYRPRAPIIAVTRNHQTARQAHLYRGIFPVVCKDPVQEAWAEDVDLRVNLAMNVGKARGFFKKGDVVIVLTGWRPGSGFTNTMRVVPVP

Substance “PK (pyruvate kinase) (Oryctolagus cuniculus)” has a Km of 40 µM and a kcat of 160 s⁻¹.
